Experimental data published in US11844843.

Biological target: recombinant human TfR1 (transferrin receptor protein 1) (human) (UniProt P02786)
Assay: Carterra LSA SPR, 25 C; IgG captured, hTfR1 as analyte; 1:1 fit

recombinant human TfR1 (transferrin receptor protein 1) (human), sequence (P02786 89-760 limits assumed): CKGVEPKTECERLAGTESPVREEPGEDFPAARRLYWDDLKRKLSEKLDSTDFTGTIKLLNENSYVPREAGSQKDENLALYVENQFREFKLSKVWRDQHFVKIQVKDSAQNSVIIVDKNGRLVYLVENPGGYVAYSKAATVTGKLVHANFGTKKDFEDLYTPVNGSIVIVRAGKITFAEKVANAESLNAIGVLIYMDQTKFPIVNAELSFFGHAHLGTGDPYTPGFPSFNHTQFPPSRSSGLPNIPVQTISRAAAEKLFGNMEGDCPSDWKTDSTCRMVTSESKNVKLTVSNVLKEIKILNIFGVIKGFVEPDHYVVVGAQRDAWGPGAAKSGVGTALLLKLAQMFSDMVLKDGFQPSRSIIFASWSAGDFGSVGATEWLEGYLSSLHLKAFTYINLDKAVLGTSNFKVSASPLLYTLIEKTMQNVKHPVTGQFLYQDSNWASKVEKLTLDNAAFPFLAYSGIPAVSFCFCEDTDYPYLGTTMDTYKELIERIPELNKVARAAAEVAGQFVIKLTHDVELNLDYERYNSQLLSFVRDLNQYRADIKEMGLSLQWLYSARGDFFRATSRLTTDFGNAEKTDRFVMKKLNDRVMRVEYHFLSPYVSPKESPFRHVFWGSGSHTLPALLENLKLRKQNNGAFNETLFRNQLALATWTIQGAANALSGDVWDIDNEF

Kd: 0.536 nM | kon: 774000 M⁻¹ s⁻¹
Substance: OKT9 mIgG (control anti-TfR1 antibody)
